# Read-outs that look alike come from different tables or passages of the source. Ends that are not written are not given here.
# Legend:
# endogenous PDK1 = biological target: T1, endogenous PDK1 (Homo sapiens, UniProt O15530); assay: Association of endogenous PDK1 with GST-PIF proteins purified from 293 cells; format: binding; settings: expressed in 293 cells, glutathione-Sepharose purified; PDK1 immunoblot and activity
# T1 construct: endogenous in cells; host or cells: 293 cells
# T1 sequence (O15530 1-556): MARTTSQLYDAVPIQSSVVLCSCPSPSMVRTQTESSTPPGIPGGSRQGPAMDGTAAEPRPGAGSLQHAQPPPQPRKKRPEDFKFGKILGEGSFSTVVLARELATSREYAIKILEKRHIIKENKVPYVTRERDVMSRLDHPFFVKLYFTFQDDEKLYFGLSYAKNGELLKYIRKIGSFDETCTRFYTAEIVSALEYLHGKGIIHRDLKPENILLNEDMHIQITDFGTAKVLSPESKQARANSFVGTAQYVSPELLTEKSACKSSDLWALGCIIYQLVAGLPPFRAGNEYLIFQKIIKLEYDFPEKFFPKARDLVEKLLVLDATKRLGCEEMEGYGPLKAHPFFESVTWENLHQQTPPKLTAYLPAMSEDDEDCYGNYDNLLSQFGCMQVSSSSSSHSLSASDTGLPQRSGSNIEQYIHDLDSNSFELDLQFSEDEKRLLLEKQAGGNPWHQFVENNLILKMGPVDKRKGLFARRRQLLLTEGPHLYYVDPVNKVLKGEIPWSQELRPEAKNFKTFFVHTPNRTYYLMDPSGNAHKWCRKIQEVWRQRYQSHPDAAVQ
# Method: FIG. 3. Mapping the residues on PIF that are required for the interaction with PDK1. (A) 293 cells were transiently transfected with DNA constructs expressing either the wild type GST-PIF or the indicated point mutations of this protein. The cells were lysed and the GST fusion proteins purified by affinity chromatography on glutathione-Sepharose beads. Each GST-fusion protein was incubated for 30 min at 30° C. with GST-S473D-PKBα and MgATP in the presence or absence of phospholipid vesicles containing 100 μM PtdCho, 100 μM PtdSer, 10 μM sn-1-stearoyl-2-arachidonoyl-D-PtdIns(3,4,5)P3, and the increase in specific activity of GST-S473D-PKBα was determined relative to a control incubation in which the GST fusion protein was omitted. The basal activity of GST-S473D-PKBα was 3.5 U/mg. 2 μg of each protein was electrophoresed on a 10% SDS/polyacrylamide gel and either immunoblotted using a PDK1 antibody raised against whole protein to detect any endogenous PDK1, or stained with Coomassie blue to establish the level of expression of the GST-PIF protein. Similar results were obtained in 5 separate experiments using 2 or more preparations of the wild type and mutant GST-PIF proteins. (B) Yeast harbouring the pAS2-1 wild type PDK1 vector (“PDK1-Vector”) or the empty pAS2-1 vector (“Vector”) were transformed with pGAD10 plasmid coding for the expression of the wild type PIF or the indicated mutants of PIF. The resulting yeast strain was grown on SD-Leu-Trp-Ura-His+3-AT medium which only permits growth of yeast constructs in which GST-PIF and PDK1 are capable of interacting.
# Expression of GST-fusion proteins in 293 cells. Up to twenty 10 cm diameter dishes of 293 cells were cultured and each dish transfected with 20 μg of pEBG2T DNA encoding the desired GST-fusion protein using a modified calcium phosphate method. In experiments described in FIG. 1 in which Myc-PDK1 constructs (pCMV5 vector) were coexpressed with GST-PIF (pEBG2T vector) or GST alone (empty pEBG2T vector) 10 μg of each construct was used. […]
# PDK1 [1] = assay: Activation of GST-ΔPH-PKBα by PDK1 with or without PIF and phosphoinositide; format: biochemical; settings: absence of PtdIns(3,4,5)P3
# Method: FIG. 8. Maximal activation of PKB by PDK1/PIF requires PtdIns(3,4,5)P3 to interact with both PKB and PDK1. […] The basal activity of GST-ΔPH-PKBα was 3.0 U/mg.
# Measurement of PKBα activation after incubation with GST-PIF. This assay was carried out in 2 stages, as described previously; briefly, in the first, GST-PKBα was incubated with GST-PIF (or other indicated PDK1 proteins in the presence or absence of peptides) in the presence of MgATP and phospholipid vesicles.
# In Stage 1, an 15 μl reaction mixture was set up containing 66.5 mM Tris/HCl pH 7.5, 0.13 mM EGTA, 0.13% (by vol) 2-mercaptoethanol, 3.3 μM PKI, 1.3 μM microcystin-LR, 13.3 mM Mg(Ac)2, 133 μM unlabelled ATP, 0.4 μM GST-PKBA, 133 μM PtdSer, 133 μM PtdCho in the presence or absence of 13.3 μM PtdIns(3,4,5)P3. The assay was initiated by the addition of 5 μl of 0.2 mg/ml GST-PIF (or other indicated proteins or peptides), after incubation for 30 min at 30° C., stage 2 of the assay was initiated by the addition of 30 μl of a mixture made up of Buffer B containing 2.5 μM PKI, 1 μM microcystin-LR, 10 mM Mg(Ac)2, 100 μM [γ^32P]ATP (200-400 cpm/pmol), 100 μM of the peptide RPRTAAF (SEQ ID NO:13) and 1.25% (by vol) Triton X-100. After 10 min at 30° C., the reactions were terminated by spotting the reaction mixture on to P81 phosphocellulose paper. The papers were washed in 75 mM phosphoric acid and analysed as described previously. A control reaction in which GST-PKBα was omitted was taken as the blank and was always less than 5% of the activity measured in the presence of GST-PKBα. The basal GST-PKBα activity is the activity measured in the absence of PDK1. 1 Unit of GST-PKBα activity was that amount of enzyme required to catalyse the phosphorylation of 1 nmol of the peptide RPRTAAF (SEQ ID NO:13) in 1 min. The assays were linear with time up to a final concentration of 3 U/ml of PDK1 activity in the assay.
# PDK1 [2] = biological target: T2, PDK1 (Homo sapiens, UniProt O15530); assay: Yeast two hybrid interaction of PIF with PDK1; format: binding
# T2 construct: expressed in transfected cells; host or cells: yeast strain Y166
# T2 sequence (O15530 428-556): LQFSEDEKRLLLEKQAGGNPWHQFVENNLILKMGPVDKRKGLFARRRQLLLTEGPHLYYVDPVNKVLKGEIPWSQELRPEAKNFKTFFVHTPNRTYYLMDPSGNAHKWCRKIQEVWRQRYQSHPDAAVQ
# Text: (§1) FIG. 1. Two hybrid interaction of PIF with the kinase domain of PDK1. Yeast were transformed with a pGAD10 plasmid (LEU2) harbouring the C-terminal 77 amino acids of PRK2 (termed PIF) in the presence of either a pAS2-1 plasmid (TRP1) coding for the expression of the wild type PDK1, the kinase domain of PDK1 (residues 1 to 404) or the PH domain of PDK1 (residues 428 to 556) or the empty pAS2-1 vector as a control (denoted by—(A). The position on the plate of each yeast strain is indicated in (A). In (B) the yeast are grown on SD-Leu and Trp deficient media in which all the strains of yeast are capable of growing independently of whether PIF is interacting with PDK1. An interaction between PIF and PDK1 leads to the expression of reporter genes coding for URA3 and HIS1 that will enable growth on SD-Leu-Trp-Ura-His+3-AT medium (C) as well as the induction of β-galactosidase gene expression (D). Alignment of the amino acid sequence of the C-terminal 77 amino acids of PRK2 with the equivalent region of AGC subfamily kinases indicated (E). Identical residues are denoted by white-on-black letters, and similar residues by grey boxes. PRK2 (SEQ ID NO:14; PRK1 (SEQ ID NO:15); PKBα (SEQ ID NO:16); P70S6k (SEQ ID NO:17); SGK (SEQ ID NO:18); PKCζ (SEQ ID NO:19); PKCα (SEQ ID NO:20); PKCβ (SEQ ID NO:21).
# (§2) Myc-tagged human PDK1, kinase domain of PDK1 (residues 1-404) and the PH domain of PDK1 (428 to 556) were subcloned into the EcoRI/SalI of the yeast pAS2-1 vector. A yeast two hybrid screen was carried out using a human skeletal muscle library subcloned into the pGAD10 vector (Clontech) transformed into the yeast strain Y166. 4×10^6 yeast cells were transformed with pGAD10 library constructs and PDK1 constructs in the pAS2-1 vector. […] In this system interacting clones from the library are able to grow in medium lacking histidine and uracil and express β-galactosidase which was detected using the Clontech protocol. pGAD10 plasmids from interacting clones were isolated transferred to E. coli, and sequenced. […]
# PDK1 [3] = biological target: T3, PDK1 (Homo sapiens, UniProt O15530); assay: Yeast two hybrid interaction of PIF with PDK1; format: binding; remark: listed apart in the source
# T3 construct: expressed in transfected cells; host or cells: yeast strain Y166
# T3 sequence (O15530 1-556): T1 sequence (O15530 1-556)
# Text: as §1, §2
# PDK1 [4] = biological target: T4, PDK1 (Homo sapiens, UniProt O15530); assay: Yeast two hybrid interaction of PIF with PDK1; format: binding; remark: listed apart in the source
# T4 construct: expressed in transfected cells; host or cells: yeast strain Y166
# T4 sequence (O15530 1-404): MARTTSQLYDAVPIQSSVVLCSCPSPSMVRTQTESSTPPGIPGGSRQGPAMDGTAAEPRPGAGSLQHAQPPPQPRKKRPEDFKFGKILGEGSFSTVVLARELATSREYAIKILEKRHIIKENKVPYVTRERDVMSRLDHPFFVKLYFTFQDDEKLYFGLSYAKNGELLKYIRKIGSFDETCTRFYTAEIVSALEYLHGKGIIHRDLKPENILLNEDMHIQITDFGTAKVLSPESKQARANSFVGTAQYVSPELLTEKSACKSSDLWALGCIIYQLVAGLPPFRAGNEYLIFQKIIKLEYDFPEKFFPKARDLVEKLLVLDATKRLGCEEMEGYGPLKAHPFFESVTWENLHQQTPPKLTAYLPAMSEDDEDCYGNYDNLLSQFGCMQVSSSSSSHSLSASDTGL
# Text: as §1, §2
# His-PDK1 = biological target: T5, His-PDK1 (Homo sapiens, UniProt O15530); assay: Surface Plasmon Resonance (BiaCore) binding of His-PDK1 to GST-PIF / Region B peptide
# T5 construct: made in house; host or cells: Sf21 insect cells (baculovirus, pFASTBAC HTb)
# T5 sequence (O15530 1-556): T1 sequence (O15530 1-556)
# Method: FIG. 12. Quantitative analysis of the binding of PDK1 to PIF. Surface Plasmon Resonance measurements were carried out on a BiaCore instrument as described in the methods section. […] The responses at steady state binding were recorded. […] All data are single determinations from a representative experiment that was repeated at least 3 times with similar results.
# BiaCore measurements. GST-PIF was coupled through amine groups to the Sensor Chip CM5 according to the manufacturer's instructions. […] The 24 residue peptide overlapping Region B was biotinylated through its C-terminal Cys and bound to Avidin coated Sensor Chip SA. […] The decrease in steady state binding was used to determine the Kd of interaction between PDK1 and the peptide, according to the […] relationship. The measure of response in our experiments is termed RU; 1000 RU=1 ng/mm^2 of protein bound to the surface.
substance,measurement,setting,value
"F974: GST-PIF mutant, F974 mutated to Ala [Lipid F974]",association of endogenous PDK1 with GST-PIF protein,endogenous PDK1,completely abolished
"F977: GST-PIF mutant, F977 mutated to Ala [Lipid F977]",association of endogenous PDK1 with GST-PIF protein,endogenous PDK1,completely abolished
PIF: C-terminal 77 amino acids of PRK2,inhibition of the catalytic activity of PDK1,PDK1 [1],~2 fold
same,two hybrid interaction with the PH domain of PDK1,PDK1 [2],not
same,two hybrid interaction with full length PDK1,PDK1 [3],positive interaction
same,two hybrid interaction with the isolated kinase domain of PDK1,PDK1 [4],positive interaction
REPRILSEEEQEMFRDFDYIADWC [Region B peptide],Kd,"His-PDK1; His-PDK1 0.5 μM mixed with free peptide, injected over immobilised peptide, read-out: Kd from competition by addition of free peptide",1500 nM
same,Kd,"His-PDK1; immobilised and biotinylated 24 residue peptide, His-PDK1 injected, read-out: Kd",800 nM
"Y979: GST-PIF mutant, Y979 mutated to Ala [Lipid Y979]",association of endogenous PDK1 with GST-PIF protein,endogenous PDK1,completely abolished

# Reference: patent publication US20070196883A1, “ENZYME” (UNIVERSITY OF DUNDEE, priority 1999, published 2007)
